Laboratory results taken from US20260007748A1 (KELONIA THERAPEUTICS, published 2026).

T1: B cell maturation antigen (BCMA) (human, UniProt Q02223 1-184)
T1 construct: BCMA as carried by RPMI-8226 (high BCMA) and Daudi (low BCMA) tumor cells; also called TNFRSF17; tumor necrosis factor receptor superfamily member 17
T1 sequence: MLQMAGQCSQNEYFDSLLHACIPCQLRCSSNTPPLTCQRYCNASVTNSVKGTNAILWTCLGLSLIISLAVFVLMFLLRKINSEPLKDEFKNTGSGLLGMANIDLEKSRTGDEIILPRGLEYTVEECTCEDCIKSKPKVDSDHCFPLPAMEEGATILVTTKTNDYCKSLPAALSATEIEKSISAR


Target: T1, B cell maturation antigen (BCMA)
Experiment: co-culture of transduced PBMCs with RPMI-8226 (high BCMA) or Daudi (low BCMA) cells; recognition read by IFNγ
Experimental: PBMCs transduced with recombinant lentiviral particles comprising a viral envelope expressing a mutated VSIV-G and a non-viral membrane-bound tropism polypeptide that binds CD3 and a lentiviral vector encoding an MNDU3 promoter operably linked to a polynucleotide encoding a CD8α signal peptide and an anti-BCMA CAR and a WPRE operably linked to the 3′ prime end of the polynucleotide encoding the anti-BCMA CAR (18 anti-BCMA CARs were evaluated) were co-cultured with Daudi cells (low BCMA expression) or RPMI-8226 cells (high BCMA expression) for 24 hours. After 24 hours, IFNγ levels in co-culture supernatant were measured and plotted as a function of % anti-BCMA CAR positive cells in the co-culture.
5×10⁴ PBMCs transduced with recombinant lentiviruses LV 1 to LV 19 were co-cultured with 5×10⁴ high BCMA-expressing tumor cells (RPMI-8226) or 5×10⁴ low BCMA-expressing tumor cells (Daudi) for 24 hours. Anti-BCMA CAR activity was assessed by harvesting co-culture supernatants and measuring IFNγ levels using a Meso Scale Discovery (MSD®) assay. The percentage of anti-BCMA CAR positive cells was plotted against IFNγ levels produced in co-culture. FIG. 2D.

Binder	binding result
anti-BCMA CAR of recombinant lentivirus LV 3 (SEQ ID NO: 259) (other, Chimeric antigen receptor on transduced human PBMCs: anti-BCMA scFv, CD8α hinge and TM, CD137 costim, CD3ζ; also called LV 3.1 to LV 3.9) QVQLVESGGGVVQPGRSLRLSCAASGFTFSSYGMHWVRQAPGKGLEWVAVISYEGSNKYYADSVKGRFTISRDNSKNTLYLQMNSLRAEDTAVYYCARELGDGMDVWGQGTTVTVSSGGGGSGGGGSGGGGSGGGGSEIVLTQSPATLSLSPGERATLSCRASQSVSSYLAWFQQKPGQAPRLLIYDASNRATGIPARFSGSGSGTDFTLTISSLEPEDFAVYYCQQRVDLWTFGGGTKVEIKTTTPAPRPPTPAPTIASQPLSLRPEACRPAAGGAVHTRGLDFACDIYIWAPLAGTCGVLLLSLVITLYCKRGRKKLLYIFKQPFMRPVQTTQEEDGCSCRFPEEEEGGCELRVKFSRSADAPAYQQGQNQLYNELNLGRREEYDVLDKRRGRDPEMGGKPRRKNPQEGLYNELQKDKMAEAYSEIGMKGERRRGKGHDGLYQGLSTATKDTYDALHMQALPPR	binds
anti-BCMA CAR of recombinant lentivirus LV 15 (SEQ ID NO: 279) (other, Chimeric antigen receptor on transduced human PBMCs: anti-BCMA VHH, CD8α hinge and TM, CD137 costim, CD3ζ) EVQLLESGGGLVQPGGSLRLSCAASGFTFDSYTMSWYRQAPGKERELVSAISGHGDSTYYADSVKGRFTISRDNSKNTLYLQMNSLRAEDTAVYYCTRISITTEWLAGDYWGQGTQVTVSSTTTPAPRPPTPAPTIASQPLSLRPEACRPAAGGAVHTRGLDFACDIYIWAPLAGTCGVLLLSLVITLYCKRGRKKLLYIFKQPFMRPVQTTQEEDGCSCRFPEEEEGGCELRVKFSRSADAPAYQQGQNQLYNELNLGRREEYDVLDKRRGRDPEMGGKPRRKNPQEGLYNELQKDKMAEAYSEIGMKGERRRGKGHDGLYQGLSTATKDTYDALHMQALPPR	binds
anti-BCMA CAR of recombinant lentivirus LV 18 (SEQ ID NO: 283) (other, Chimeric antigen receptor on transduced human PBMCs: anti-BCMA VHH, CD8α hinge and TM, CD137 costim, CD3ζ) EVQLLESGGGLVQPGGSLRLSCAASGFTFSSEGMSWVRQAPGKERELVSAISGSGDHTYYADSVRGRFTISRDNSKNTLYLQMNSLRAEDTAVYYCNALEGGPTTAIQPGGPDYWGQGTQVTVSSTTTPAPRPPTPAPTIASQPLSLRPEACRPAAGGAVHTRGLDFACDIYIWAPLAGTCGVLLLSLVITLYCKRGRKKLLYIFKQPFMRPVQTTQEEDGCSCRFPEEEEGGCELRVKFSRSADAPAYQQGQNQLYNELNLGRREEYDVLDKRRGRDPEMGGKPRRKNPQEGLYNELQKDKMAEAYSEIGMKGERRRGKGHDGLYQGLSTATKDTYDALHMQALPPR	binds
anti-BCMA CAR of recombinant lentivirus LV 12 (SEQ ID NO: 276) (other, Chimeric antigen receptor on transduced human PBMCs: anti-BCMA VHH, CD8α hinge and TM, CD137 costim, CD3ζ) EVQLLESGGGLVQPGGSLRLSCAASGFTFEDYAMSWFRQAPGKEREGVSAISGKGGSTYYADSVKGRFTISRDNSKNTLYLQMNSLRAEDTAVYYCAVLDEEAGAEGGYWGQGTQVTVSSTTTPAPRPPTPAPTIASQPLSLRPEACRPAAGGAVHTRGLDFACDIYIWAPLAGTCGVLLLSLVITLYCKRGRKKLLYIFKQPFMRPVQTTQEEDGCSCRFPEEEEGGCELRVKFSRSADAPAYQQGQNQLYNELNLGRREEYDVLDKRRGRDPEMGGKPRRKNPQEGLYNELQKDKMAEAYSEIGMKGERRRGKGHDGLYQGLSTATKDTYDALHMQALPPR	binds
anti-BCMA CAR of recombinant lentivirus LV 13 (SEQ ID NO: 277) (other, Chimeric antigen receptor on transduced human PBMCs: anti-BCMA VHH, CD8α hinge and TM, CD137 costim, CD3ζ; also called LV 13.1 to LV 13.9) EVQLLESGGGLVQPGGSLRLSCAASGFTFDRYAMSWFRQAPGKEREGVSAISTSGDSTYYADSVKGRFTISRDNSKNTLYLQMNSLRAEDTAVYYCAVLDEEAGAEGGYWGQGTQVTVSSTTTPAPRPPTPAPTIASQPLSLRPEACRPAAGGAVHTRGLDFACDIYIWAPLAGTCGVLLLSLVITLYCKRGRKKLLYIFKQPFMRPVQTTQEEDGCSCRFPEEEEGGCELRVKFSRSADAPAYQQGQNQLYNELNLGRREEYDVLDKRRGRDPEMGGKPRRKNPQEGLYNELQKDKMAEAYSEIGMKGERRRGKGHDGLYQGLSTATKDTYDALHMQALPPR	binds
anti-BCMA CAR of recombinant lentivirus LV 11 (SEQ ID NO: 275) (other, Chimeric antigen receptor on transduced human PBMCs: anti-BCMA VHH, CD8α hinge and TM, CD137 costim, CD3ζ) EVQLLESGGGLVQPGGSLRLSCAASGFTFDEYTMHWFRQAPGKEREFVSAISGGGSETYYADSVKGRFTISRDNSKNTLYLQMNSLRAEDTAVYYCAAGGEEAGVGYWGQGTQVTVSSTTTPAPRPPTPAPTIASQPLSLRPEACRPAAGGAVHTRGLDFACDIYIWAPLAGTCGVLLLSLVITLYCKRGRKKLLYIFKQPFMRPVQTTQEEDGCSCRFPEEEEGGCELRVKFSRSADAPAYQQGQNQLYNELNLGRREEYDVLDKRRGRDPEMGGKPRRKNPQEGLYNELQKDKMAEAYSEIGMKGERRRGKGHDGLYQGLSTATKDTYDALHMQALPPR	binds
anti-BCMA CAR of recombinant lentivirus LV 7 (SEQ ID NO: 268) (other, Chimeric antigen receptor on transduced human PBMCs: anti-BCMA scFv, CD8α hinge and TM, CD137 costim, CD3ζ) DIQMTQSPSSLSASVGDRVTITCRASQSISSYLNWYQQKPGKAPKLLIYAASSLQSGVPSRFSGSGSGTDFTLTISSLQPEDFATYYCQQAHSSPITFGGGTKVEIKGGGGSGGGGSGGGGSGGGGSEVQLLESGGGLVQPGGSLRLSCAASGFTFSNYAMSWVRQAPGKGLEWVSAISGSGGSTYYADSVKGRFTISRDNSKNTLYLQMNSLRAEDTAVYYCARPGDGYYEGVYFDYWGQGTLVTVSSTTTPAPRPPTPAPTIASQPLSLRPEACRPAAGGAVHTRGLDFACDIYIWAPLAGTCGVLLLSLVITLYCKRGRKKLLYIFKQPFMRPVQTTQEEDGCSCRFPEEEEGGCELRVKFSRSADAPAYQQGQNQLYNELNLGRREEYDVLDKRRGRDPEMGGKPRRKNPQEGLYNELQKDKMAEAYSEIGMKGERRRGKGHDGLYQGLSTATKDTYDALHMQALPPR	binds
anti-BCMA CAR of recombinant lentivirus LV 8 (SEQ ID NO: 270) (other, Chimeric antigen receptor on transduced human PBMCs: anti-BCMA scFv, CD8α hinge and TM, CD137 costim, CD3ζ; also called LV 8.1 to LV 8.9) DIQMTQSPSSLSASVGDRVTITCQASQDIANYLNWYQQKPGKAPKLLIYDASNLETGVPSRFSGSGSGTDFTFTISSLQPEDIATYYCQQHFNLPLTFGGGTKVEIKGGGGSGGGGSGGGGSGGGGSQITLKESGPTLVKPTQTLTLTCTFSGFSLSTSGVGVGWIRQPPGKALEWLALIYWNDEKRYSPSLKSRLTITKDTSKNQVVLTMTNMDPVDTAVYYCAREGSHDYKSSNWFDPWGQGTLVTVSSTTTPAPRPPTPAPTIASQPLSLRPEACRPAAGGAVHTRGLDFACDIYIWAPLAGTCGVLLLSLVITLYCKRGRKKLLYIFKQPFMRPVQTTQEEDGCSCRFPEEEEGGCELRVKFSRSADAPAYQQGQNQLYNELNLGRREEYDVLDKRRGRDPEMGGKPRRKNPQEGLYNELQKDKMAEAYSEIGMKGERRRGKGHDGLYQGLSTATKDTYDALHMQALPPR	binds
anti-BCMA CAR of recombinant lentivirus LV 5 (SEQ ID NO: 263) (other, Chimeric antigen receptor on transduced human PBMCs: anti-BCMA scFv, CD8α hinge and TM, CD137 costim, CD3ζ; also called LV 5.1 to LV 5.9) QVQLVESGGGLVKPGGSLRLSCAASGFTFSDYYMSWIRQAPGKGLEWVSYISSSGSTIYYADSVKGRFTISRDNAKNSLYLQMNSLRAEDTAVYYCARDQGNYGVDVWGQGTTVTVSSGGGGSGGGGSGGGGSGGGGSDIQMTQSPSTLSASVGDRVTITCRASQSISSWLAWYQQKPGKAPKLLIYEASSLESGVPSRFSGSGSGTEFTLTISSLQPDDFATYYCQQSDSHPITFGGGTKVEIKTTTPAPRPPTPAPTIASQPLSLRPEACRPAAGGAVHTRGLDFACDIYIWAPLAGTCGVLLLSLVITLYCKRGRKKLLYIFKQPFMRPVQTTQEEDGCSCRFPEEEEGGCELRVKFSRSADAPAYQQGQNQLYNELNLGRREEYDVLDKRRGRDPEMGGKPRRKNPQEGLYNELQKDKMAEAYSEIGMKGERRRGKGHDGLYQGLSTATKDTYDALHMQALPPR	binds
anti-BCMA CAR of recombinant lentivirus LV 1 (SEQ ID NO: 256) (other, Chimeric antigen receptor on transduced human PBMCs: anti-BCMA scFv, CD8α hinge and TM, CD137 costim, CD3ζ; Encoded with a CD8α signal peptide) EIVLTQSPATLSLSPGERATLSCRASQSVSSYLAWYQQKPGQAPRLLIYDASNRATGIPARFSGSGSGTDFTLTISSLEPEDFAVYYCQQRVVYPITFGGGTKVEIKGGGGSGGGGSGGGGSGGGGSQITLKESGPTLVKPTQTLTLTCTFSGFSLSTSGVGVGWIRQPPGKALEWLALIYWNDEKRYSPSLKSRLTITKDTSKNQVVLTMTNMDPVDTAVYYCARDEYGGFDIWGQGTMVTVSSTTTPAPRPPTPAPTIASQPLSLRPEACRPAAGGAVHTRGLDFACDIYIWAPLAGTCGVLLLSLVITLYCKRGRKKLLYIFKQPFMRPVQTTQEEDGCSCRFPEEEEGGCELRVKFSRSADAPAYQQGQNQLYNELNLGRREEYDVLDKRRGRDPEMGGKPRRKNPQEGLYNELQKDKMAEAYSEIGMKGERRRGKGHDGLYQGLSTATKDTYDALHMQALPPR	binds
anti-BCMA CAR of recombinant lentivirus LV 2 (SEQ ID NO: 258) (other, Chimeric antigen receptor on transduced human PBMCs: anti-BCMA scFv, CD8α hinge and TM, CD137 costim, CD3ζ) EIVLTQSPATLSLSPGERATLSCRASQSVSSYLAWYQQKPGQAPRLLIYDASNRATGIPARFSGSGSGTDFTLTISSLEPEDFAVYYCQQRFDYPITFGGGTKVEIKGGGGSGGGGSGGGGSGGGGSQITLKESGPTLVKPTQTLTLTCTFSGFSLSTSGVGVGWIRQPPGKALEWLALIYWNDDKRYSPSLKSRLTITKDTSKNQVVLTMTNMDPVDTAVYYCARDEYGGFDIWGQGTMVTVSSTTTPAPRPPTPAPTIASQPLSLRPEACRPAAGGAVHTRGLDFACDIYIWAPLAGTCGVLLLSLVITLYCKRGRKKLLYIFKQPFMRPVQTTQEEDGCSCRFPEEEEGGCELRVKFSRSADAPAYQQGQNQLYNELNLGRREEYDVLDKRRGRDPEMGGKPRRKNPQEGLYNELQKDKMAEAYSEIGMKGERRRGKGHDGLYQGLSTATKDTYDALHMQALPPR	binds
anti-BCMA CAR of recombinant lentivirus LV 10 (SEQ ID NO: 274) (other, Chimeric antigen receptor on transduced human PBMCs: anti-BCMA VHH, CD8α hinge and TM, CD137 costim, CD3ζ) EVQLLESGGGLVQPGGSLRLSCAASGFTFESEAMSWYRQAPGKERELVSVITSEGSTYYADSVKGRFTISRDNSKNTLYLQMNSLRAEDTAVYYCAHIEWETRLNWGQGTQVTVSSTTTPAPRPPTPAPTIASQPLSLRPEACRPAAGGAVHTRGLDFACDIYIWAPLAGTCGVLLLSLVITLYCKRGRKKLLYIFKQPFMRPVQTTQEEDGCSCRFPEEEEGGCELRVKFSRSADAPAYQQGQNQLYNELNLGRREEYDVLDKRRGRDPEMGGKPRRKNPQEGLYNELQKDKMAEAYSEIGMKGERRRGKGHDGLYQGLSTATKDTYDALHMQALPPR	binds
